In publication PMC7521651, “Intracerebroventricular enzyme replacement therapy with β-galactosidase reverses brain pathologies due to GM1 gangliosidosis in mice” (The Journal of Biological Chemistry, 2019):

Experiments:
[1] = target: the molecule itself; assay: AUC; sedimentation equilibrium, 12,000 and 14,000 rpm, 20 mM sodium acetate pH 5, 150 mM NaCl, 3 mM KCl; dimer to monomers, limit calculated from detection of 10% monomer
[2] = target: the molecule itself; assay: AUC; sedimentation equilibrium, 12,000 and 14,000 rpm, 25 °C, 20 mM sodium phosphate pH 7.4, 150 mM NaCl, 3 mM KCl; monomer-dimer equilibrium model (SEDPHAT); dimer to monomers

B1: recombinant human β-gal (rhβ-gal) (enzyme)
chain: QRMFEIDYSRDSFLKDGQPFRYISGSIHYSRVPRFYWKDRLLKMKMAGLNAIQTYVPWNFHEPWPGQYQFSEDHDVEYFLRLAHELGLLVILRPGPYICAEWEMGGLPAWLLEKESILLRSSDPDYLAAVDKWLGVLLPKMKPLLYQNGGPVITVQVENEYGSYFACDFDYLRFLQKRFRHHLGDDVVLFTTDGAHKTFLKCGALQGLYTTVDFGTGSNITDAFLSQRKCEPKGPLINSEFYTGWLDHWGQPHSTIKTEAVASSLYDILARGASVNLYMFIGGTNFAYWNGANSPYAAQPTSYDYDAPLSEAGDLTEKYFALRNIIQKFEKVPEGPIPPSTPKFAYGKVTLEKLKTVGAALDILCPSGPIKSLYPLTFIQVKQHYGFVLYRTTLPQDCSNPAPLSSPLNGVHDRAYVAVDGIPQGVLERNNVITLNITGKAGATLDLLVENMGRVNYGAYINDFKGLVSNLTLSSNILTDWTIFPLDTEDAVRSHLGGWGHRDSGHHDEAWAHNSSNYTLPAFYMGNFSIPSGIPDLPQDTFIQFPGWTKGQVWINGFNLGRYWPARGPQLTLFVPQHILMTSAPNTITVLELEWAPCSSDDPELCAVTFVDRPVIGSSVTYDHPSKPVEKRLMPPPPQKNKDSWLDHV
modifications: N-linked glycans; about 9% of the total glycan composition is bisphosphorylated oligomannose (BPM7)
notes: human lysosomal β-galactosidase (GLB1), secreted from CHO cells as the precursor, nonlysosomal enzyme (not the lysosomally processed mature form); No tag is mentioned; PDB 3THC is another preparation, treated by limited proteolysis, with residues 648-677 not determined; also called β-galactosidase; lysosomal β-gal
[1]
  Kd: ≤ 2 nM
  stoichiometry N: 2
[2]
  Kd: 243 nM
